The Kd is the constant that tells how readily two partners part at equilibrium.

Numbering of substitutions follows the chain as printed. Like-named read-outs stand apart in the source and are kept apart here.

The source of these data is patent US7537764.

Assay [1] addresses West Nile virus strain USA99b (strain 385-99), whole virus (West Nile virus strain 385-99 (USA99b)).
Assay [2] shares this target. In words: ELISA on irradiated WNV; IgG1 at 0.039 µg/ml.
Assay [3] shares this target. In words: ELISA on irradiated WNV; IgG1 at 0.078 µg/ml.
For assay [4] the target is unchanged. In words: ELISA on irradiated WNV; IgG1 at 0.160 µg/ml.
Assay [5] has the same target. As to the kind of experiment: ELISA on irradiated WNV; IgG1 at 0.310 µg/ml. (In general: ELISA stands for enzyme-linked immunosorbent assay.)
The target is the same in assay [6]. In words: ELISA on irradiated WNV; IgG1 at 0.630 µg/ml.
Assay [7] has the same target. As to the kind of experiment: ELISA on irradiated WNV; IgG1 at 1.250 µg/ml.
Assay [8] has the same target. In words: ELISA on irradiated WNV; IgG1 at 2.500 µg/ml.
Assay [9] shares this target. As to the kind of experiment: ELISA on irradiated WNV; IgG1 at 5.000 µg/ml.
For assay [10] the target is unchanged. In words: ELISA on irradiated WNV; IgG1 at 10.000 µg/ml.
Assay [11] has the same target. In words: ELISA on irradiated WNV; IgG1 at 0.000 µg/ml (no antibody).
Assay [12] shares this target. In words: SPR as in Example 9, WNV captured via immobilized CR4283, average of duplicates.
Assay [13] has the same target. As to the kind of experiment: phage ELISA on coated whole inactivated WNV.
Assay [14] has the same target. In words: cell-based or functional assay.
Assay [15] shares this target. As to the kind of experiment: ELISA on irradiated WNV; IgG1 at 20.000 µg/ml.
Assay [16] shares this target. In words: ELISA on irradiated WNV; IgG1 supernatant diluted 1:5.
Assay [17] has the same target. As to the kind of experiment: ELISA on irradiated WNV; IgG1 supernatant diluted 1:25.
The target is the same in assay [18]. In words: ELISA on irradiated WNV; IgG1 supernatant diluted 1:125.

B1: CR4353 (antibody, V domains shown)
VH: QVQLVESGGGVVQPGRSLRLSCAASGFTFSNYAMHWVRQAPGKGLEWVAVISYDGGNKYYADSVKGRFTMSRDNSKNTLYLQMNSLRAEDTAVYYCARDFWSGYSMVDSYYYYMDVWGQGTTVTVSS
VL: ETTLTQSPGTLSLSPGERATLSCRASQSVSNTFLAWYQQKPGQAPRLLIYGASSRATGIPDRFSGSGSGTDFTLTISRLEPEDFAAYYCQQYGSSLTFGPGTKVDIKR
With B1, in assay [1], the dissociation constant (Kd) worked out at 6.5 nM. In addition, the OD 492 nm is 0.595 OD in assay [2]; 0.734 OD in [3]; 1.07 OD in assay [4]; 1.17 OD in [5]; 1.33 OD in assay [6]; 1.42 OD in [7]. The OD 492 nm in assay [8] stood at 1.43 OD; in assay [9], 1.55 OD; in [10] it was 1.57 OD; in [11] it was 0.003 OD.

B2: CR5074 (antibody, V domains shown)
VH: QVTLKESGPTLVKPTQTLTLTCTFSGFSLSTSGVGVGWIRQPPGKALEWLAVIYWNDDKLYRPSLKSRLTITKDTSKNQVVLTMTKMDPVDTATYYCAHRHRYYDISGYYRLFSDAFDIWGQGTMVTVSS
VL: QSVLTQPPSVSGAPGQRVTISCTGSSSNIGTGYDVHWYQQLPGTAPKLLIYADTNRPSGVPDRFSGSKSGTSASLAITGVQAEDEADYYCQSYDTSLTGWVFGGGTKVTVLG
For the molecule B2, the Kd in [12] was 3.9 nM. This lies in the single-digit nanomolar range.

B3: CR5085 (antibody, V domains shown)
VH: B2 VH
VL: B2 VL with L4V, T31A, A52G, D53N, T54S, V80L, A86T, T95S, T98N, V108L
In assay [12], B3 came in with a dissociation constant (Kd) of 3.7 nM.

B4: CR5080 (antibody, V domains shown)
VH: B2 VH
VL: B2 VL with T31A, A52G, D53N, T54S, V80L, T95S, T98S, V101A, V108L
As to B4, in assay [12], the Kd came to 2.7 nM.

B5: CR5088 (antibody, V domains shown)
VH: B2 VH
VL: QSVVTQPPSVSGAPGQRITISCTGSSSNIGAGYDVHWYQQLPGTAPKFLIYGNSNRPSGVPDRFSGSKSGTSASLAITGLQAEDEADYYCQSYDSSLSGWVFGGGTKLTVLG
Molecule B5 returned a Kd in assay [12] of 1.7 nM.

B6: SC04-361 (scFv)
scFv: EVQLVQSGAEVKKPGESLKISCKASGFSFSTYWIGWVRQMPGKGLEWMGIIYPADSDTRYSPSFQGQVTISADKSISTAYLQWSSLKASDTAMYYCARLRGPYYDFWNGYRETHDAFNVWGQGTMVTVSSGTGGSGGTGSGTGGSTDVVMTQSPDSLAVSLGERATINCKSSQNILDNSDNKNFLAWYQQKPGQPPKLLIYWASARESGVPDRFSGSGSGTDFTLTISSLQAEDVALYYCQQYYNTPITFGQGTRLEIKR
B6: in [13], the OD 492 nm came to 0.66 OD.

B7: CR4289 (antibody, V domains shown)
VH: EVQLVQSGAEVKKPGESLRISCKGSGYSFTSNWITWVRQMPGKGLEWMGRIDPSDSYTNYSPSFQGHVTISADKSISTAYLQWSSLKASDTAMYYCARDVVGVGASDYYYYMDVWGQGTTVTVSS
VL: EIVLTQSPGTLSLSPGETATLSCRTSQSVSSSYLGWYQQKPGQAPRLLIYGASIRATGIPARFSGSGSGTEFTLTIDSLQSEDFAVYYCQQYNNWPPITFGQGTRLEIKR
For the molecule B7, the potency in the 66% neutralizing antibody titer assay in [14] came out at 10.1 µg/mL. Further, the OD 492 nm in assay [2] is 0.147 OD; in assay [3], 0.209 OD; in assay [4] it was 0.25 OD; in [5], 0.313 OD; in assay [6], 0.351 OD; in [7] it was 0.415 OD. For the same molecule, the OD 492 nm in assay [8] worked out at 0.492 OD; in [9], 0.586 OD; in [10], 0.752 OD; in assay [11] it was 0.003 OD.

B8: SC04-353 (scFv)
scFv: EVQLVQSGGGVVQPGRSLRLSCAASGFTFSNYAMHWVRQAPGKGLEWVAVISYDGGNKYYADSVKGRFTMSRDNSKNTLYLQMNSLRAEDTAVYYCARDFWSGYSMVDSYYYYMDVWGKGTTVTVSSGTGGSGGTGSGTGGSTETTLTQSPGTLSLSPGERATLSCRASQSVSNTFLAWYQQKPGQAPRLLIYGASSRATGIPDRFSGSGSGTDFTLTISRLEPEDFAAYYCQQYGSSLTFGPGTKVDIKR
B8: in assay [13], the OD 492 nm came to 1 OD.

B9: CR4299 (antibody, V domains shown)
VH: QVQLVESGGGVVQPGRSLRLSCAASGFTFSGYAMHWVRQAPGKGLDWVAVISYDGSEKYSADSVKGRFTISRDNSKNTLYLQMNSLRAEDTAVYYCAKESGGPIWYKYYGVDVWGQGTTVTVSS
VL: SYVLTQPPSLSAAPRQRVTISCSGSSSNIGNYGVNWYQQLPGKAPKLLIYYDDLLPSGVSDRFSGSKSGTSASLAISGLQSEDEGDYYCAAWDDTLSAWVFGGGTKLTVLG
Turning to B9, the potency in the 66% neutralizing antibody titer assay in [14] worked out at 3 µg/mL. Also, the OD 492 nm in [2] came out at 0.227 OD; in assay [3], 0.446 OD; in [4] it was 0.61 OD; in assay [5], 0.756 OD; in assay [6], 0.891 OD; in assay [7], 0.977 OD. The OD 492 nm in assay [8] turned out to be 1.03 OD; in assay [9] it was 1.07 OD; in assay [10], 1.12 OD; in assay [15], 1.19 OD; in [16], 1.48 OD; in assay [17] it was 1.34 OD. Further, the OD 492 nm was determined as 0.929 OD in assay [18] and 0.003 OD in assay [11].

B10: SC04-374 (scFv)
scFv: QVTLKESGPTLVKPTQTLTLTCTFSGFSLSTSGVGVGWIRQPPGKALEWLAVIYWNDDKLYRPSLKSRLTITKDTSKNQVVLTMTKMDPVDTATYYCAHRHRYYDISGYYRLFSDAFDIWGQGTMVTVSSGTGGSGGTGSGTGGSTQSVVTQPPSVSGAPGQRVTISCTGSSSNIGAGYDVHWYQQLPGTAPKLLIYGNSNRPSGVPDRFSGSKSGTSASLAITGLQAEDEADYYCQSYDSSLSGSVFGGGTKLTVLG
In assay [13], B10 had an OD 492 nm of 0.975 OD.
